# Data published in paper PMC5542437, “Assembly and stoichiometry of the core structure of the bacterial flagellar type III export gate complex” (PLoS Biology, 2017).
# T1: His-St-FliP (Salmonella FliP with a hexahistidine tag inserted between Gln-22 and Leu-23) (Salmonella enterica, UniProt P54700 22-245)
# T1 construct: FliP, Salmonella enterica, 25-kDa transmembrane protein; mature form studied; the signal peptide (Met-1 to Gln-22) is cleaved during membrane insertion; tag LHHHHHH inserted between Gln-22 and Leu-23; Hexameric ring in SEC peak 2; also called His-FliP; FliP6 ring; source: Salmonella SJW1368, membranes solubilised with 1% DDM or 1% LMNG; purified (Ni-NTA, SEC); not shown: His6 (LHHHHHH), internal …
# T1 sequence: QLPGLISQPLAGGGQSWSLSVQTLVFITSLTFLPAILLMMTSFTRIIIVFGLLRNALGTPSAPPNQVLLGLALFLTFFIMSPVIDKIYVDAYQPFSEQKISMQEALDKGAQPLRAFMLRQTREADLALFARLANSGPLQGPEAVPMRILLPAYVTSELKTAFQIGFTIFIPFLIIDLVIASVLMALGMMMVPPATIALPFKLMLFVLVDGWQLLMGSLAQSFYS
# T2: FlhA (Salmonella enterica, UniProt P40729 1-692)
# T2 construct: FlhA, Salmonella enterica, transmembrane export gate protein; source: Salmonella SJW1368, pTrc99A-based plasmid, in DDM- or LMNG-solubilised membranes; co-purified
# T2 sequence: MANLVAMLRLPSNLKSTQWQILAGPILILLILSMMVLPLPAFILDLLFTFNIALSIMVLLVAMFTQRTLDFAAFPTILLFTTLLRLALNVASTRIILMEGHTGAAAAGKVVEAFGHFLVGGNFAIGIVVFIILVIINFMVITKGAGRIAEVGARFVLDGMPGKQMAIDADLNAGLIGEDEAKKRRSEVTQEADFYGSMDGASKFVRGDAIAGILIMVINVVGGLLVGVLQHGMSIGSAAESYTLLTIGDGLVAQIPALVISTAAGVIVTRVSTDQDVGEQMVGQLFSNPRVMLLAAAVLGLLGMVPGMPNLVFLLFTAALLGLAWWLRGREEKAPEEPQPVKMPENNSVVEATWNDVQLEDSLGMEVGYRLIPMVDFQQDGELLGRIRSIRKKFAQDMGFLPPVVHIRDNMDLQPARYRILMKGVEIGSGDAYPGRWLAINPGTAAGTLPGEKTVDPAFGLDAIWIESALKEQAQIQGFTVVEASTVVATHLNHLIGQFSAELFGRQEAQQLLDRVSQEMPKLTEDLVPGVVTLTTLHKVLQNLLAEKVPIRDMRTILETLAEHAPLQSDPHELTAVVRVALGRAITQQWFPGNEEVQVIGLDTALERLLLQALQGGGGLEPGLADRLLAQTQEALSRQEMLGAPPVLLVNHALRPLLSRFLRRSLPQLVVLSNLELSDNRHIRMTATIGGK
# B1: FliF (natural protein)
# chain: MSATASTATQPKPLEWLNRLRANPRIPLIVAGSAAVAIVVAMVLWAKTPDYRTLFSNLSDQDGGAIVAQLTQMNIPYRFANGSGAIEVPADKVHELRLRLAQQGLPKGGAVGFELLDQEKFGISQFSEQVNYQRALEGELARTIETLGPVKSARVHLAMPKPSLFVREQKSPSASVTVTLEPGRALDEGQISAVVHLVSSAVAGLPPGNVTLVDQSGHLLTQSNTSGRDLNDAQLKFANDVESRIQRRIEAILSPIVGNGNVHAQVTAQLDFANKEQTEEHYSPNGDASKATLRSRQLNISEQVGAGYPGGVPGALSNQPAPPNEAPIATPPTNQQNAQNTPQTSTSTNSNSAGPRSTQRNETSNYEVDRTIRHTKMNVGDIERLSVAVVVNYKTLADGKPLPLTADQMKQIEDLTREAMGFSDKRGDTLNVVNSPFSAVDNTGGELPFWQQQSFIDQLLAAGRWLLVLVVAWILWRKAVRPQLTRRVEEAKAAQEQAQVRQETEEAVEVRLSKDEQLQQRRANQRLGAEVMSQRIREMSDNDPRVVALVIRQWMSNDHE
# notes: FliF, Salmonella enterica, transmembrane protein that forms the MS ring; also called MS ring; source: Salmonella SJW1368, pTrc99A-based plasmid, in DDM-solubilised membranes
# How the values were obtained:
# [1] = target: the molecule itself; assay: SEC; Ni-purified His-FliP or FliO/His-FliP complexes (wild type and mutants) on Superdex 200 10/300; 20 mM Tris-HCl pH 8.0, 300 mM NaCl, 2 mM EDTA, 5% glycerol, 0.1% DDM
# [2] = target: T1, His-St-FliP (Salmonella FliP with a …); assay: pull-down; copurification from Salmonella SJW1368 co-expressing His-FliP with other export gate proteins; membranes solubilised with 1% DDM; Ni affinity, then anti-FLAG M2 affinity (eluted with FLAG peptide), then SEC on Superdex 200 10/300; SDS-PAGE with CBB; conditions: partners not purified
# [3] = target: the molecule itself; assay: crystal structure; Tm-FliPP, 2.4 Å, SAD phasing with a Se-Met derivative; 2 tetramers in the asymmetric unit
# [4] = target: the molecule itself; assay: negative-stain electron microscopy with 2D class averaging; purified SEC peak fractions, 1.0% uranyl acetate, 100 kV; autocorrelation analysis for the rotational symmetry of the FliP ring
# [5] = target: T2, FlhA; assay: SEC; Ni-purified FlhA/FliF/FliG-His complex on Superdex 200 10/300 (DDM); main peak examined by negative-stain EM; conditions: both partners purified
# [6] = target: B1; assay: pull-down; Ni affinity copurification with FliG-His from SJW1368 co-expressing FlhA, FlhB, FliF, FliG-His, FliO, FliP, HA-FliQ and FliR-FLAG; membranes solubilised with 1% DDM; conditions: partners not purified
binder,measurement,setting,value
"His-FliP(F137A) (natural protein, FliP, Salmonella enterica; mature form; signal peptide (Met-1 to Gln-22) cleaved; His tag inserted between Gln-22 and Leu-23; source: Salmonella SJW1368, co-expressed with FliO, DDM-solubilised membranes; purified (Ni-NTA, SEC); not shown: His6 (LHHHHHH), internal (after residue 22), kept) QLPGLISQPLAGGGQSWSLSVQTLVFITSLTFLPAILLMMTSFTRIIIVFGLLRNALGTPSAPPNQVLLGLALFLTFFIMSPVIDKIYVDAYQPFSEQKISMQEALDKGAQPLRAAMLRQTREADLALFARLANSGPLQGPEAVPMRILLPAYVTSELKTAFQIGFTIFIPFLIIDLVIASVLMALGMMMVPPATIALPFKLMLFVLVDGWQLLMGSLAQSFYS",stoichiometry N,[1],2
"His-FliP(F150A) (natural protein, FliP, Salmonella enterica; mature form; signal peptide (Met-1 to Gln-22) cleaved; His tag inserted between Gln-22 and Leu-23; also called His-FliP(F1507A) [sic]; source: Salmonella SJW1368, co-expressed with FliO, DDM-solubilised membranes; purified (Ni-NTA, SEC); not shown: His6 (LHHHHHH), internal (after residue 22), kept) QLPGLISQPLAGGGQSWSLSVQTLVFITSLTFLPAILLMMTSFTRIIIVFGLLRNALGTPSAPPNQVLLGLALFLTFFIMSPVIDKIYVDAYQPFSEQKISMQEALDKGAQPLRAFMLRQTREADLALAARLANSGPLQGPEAVPMRILLPAYVTSELKTAFQIGFTIFIPFLIIDLVIASVLMALGMMMVPPATIALPFKLMLFVLVDGWQLLMGSLAQSFYS",stoichiometry N,[1],2
"His-FliP(E178A) (natural protein, FliP, Salmonella enterica; mature form; signal peptide (Met-1 to Gln-22) cleaved; His tag inserted between Gln-22 and Leu-23; source: Salmonella SJW1368, co-expressed with FliO, DDM-solubilised membranes; purified (Ni-NTA, SEC); not shown: His6 (LHHHHHH), internal (after residue 22), kept) QLPGLISQPLAGGGQSWSLSVQTLVFITSLTFLPAILLMMTSFTRIIIVFGLLRNALGTPSAPPNQVLLGLALFLTFFIMSPVIDKIYVDAYQPFSEQKISMQEALDKGAQPLRAFMLRQTREADLALFARLANSGPLQGPEAVPMRILLPAYVTSALKTAFQIGFTIFIPFLIIDLVIASVLMALGMMMVPPATIALPFKLMLFVLVDGWQLLMGSLAQSFYS",stoichiometry N,[1],2
"FliR-FLAG (natural protein, FliR, Salmonella enterica, transmembrane export gate protein; also called FLAG-FliR (as printed in the methods); source: Salmonella SJW1368, pTrc99A-based plasmid, in DDM- or LMNG-solubilised membranes; co-purified (Ni-NTA, anti-FLAG gel, SEC)) MIQVTSEQWLYWLHLYFWPLLRVLALISTAPILSERAIPKRVKLGLGIMITLVIAPSLPANDTPLFSIAALWLAMQQILIGIALGFTMQFAFAAVRTAGEFIGLQMGLSFATFVDPGSHLNMPVLARIMDMLAMLLFLTFNGHLWLISLLVDTFHTLPIGSNPVNSNAFMALARAGGLIFLNGLMLALPVITLLLTLNLALGLLNRMAPQLSIFVIGFPLTLTVGIMLMAALMPLIAPFCEHLFSEIFNLLADIVSEMPINNNP",stoichiometry N,[2],~2 copies of FliR per 6 copies of FliP
"Tm-FliPP (periplasmic domain of FliP of Thermotoga maritima) (domain or fragment, FliP of Thermotoga maritima (printed 'T. maritia'), periplasmic domain between TM-2 and TM-3; the atomic model holds Thr-122 to Lys-188; the N-terminal 13 residues of the construct are invisible; also called FliPP of T. maritia; Tm-FliPP tetramer; source: expression and purification described previously [37]) YNNAITPYLNKETGYQEMFQRVNTRIREFMINELKNHHNEDNVFMLAKNSGIEIAKIEEAPNAVLIPAFVLGELEVAFK",stoichiometry N,[3],4
B1,binding result,[4],binds
same,binding result,[5],binds
"FliG-His (natural protein, FliG, Salmonella enterica, C ring protein; also called His-FliG; source: Salmonella SJW1368, pTrc99A-based plasmid, in DDM-solubilised membranes; not shown: His tag, C-terminal, kept) MSNLSGTDKSVILLMTIGEDRAAEVFKHLSTREVQALSTAMANVRQISNKQLTDVLSEFEQEAEQFAALNINANEYLRSVLVKALGEERASSLLEDILETRDTTSGIETLNFMEPQSAADLIRDEHPQIIATILVHLKRSQAADILALFDERLRHDVMLRIATFGGVQPAALAELTEVLNGLLDGQNLKRSKMGGVRTAAEIINLMKTQQEEAVITAVREFDGELAQKIIDEMFLFENLVDVDDRSIQRLLQEVDSESLLIALKGAEPPLREKFLRNMSQRAADILRDDLANRGPVRLSQVENEQKAILLIVRRLAETGEMVIGSGEDTYV",binding result,[6],binds
"FlhB (natural protein, FlhB, Salmonella enterica, transmembrane export gate protein; its C-terminal cytoplasmic domain undergoes autocleavage between Asp-269 and Pro270 as printed; source: Salmonella SJW1368, pTrc99A-based plasmid, in DDM- or LMNG-solubilised membranes; co-purified) MAEESDDDKTEAPTPHRLEKAREEGQIPRSRELTSLLILLVGVCIIWFGGESLARQLAGMLSAGLHFDHRMVNDPNLILGQIILLIKAAMMALLPLIAGVVLVALISPVMLGGLIFSGKSLQPKFSKLNPLPGIKRMFSAQTGAELLKAVLKSTLVGCVTGFYLWHHWPQMMRLMAESPIVAMGNALDLVGLCALLVVLGVIPMVGFDVFFQIFSHLKKLRMSRQDIRDEFKESEGDPHVKGKIRQMQRAAAQRRMMEDVPKADVIVTNPTHYSVALQYDENKMSAPKVVAKGAGLIALRIREIGAEHRVPTLEAPPLARALYRHAEIGQQIPGQLYAAVAEVLAWVWQLKRWRLAGGQRPPQPENLPVPEALDFMNEKNTDG",stoichiometry N,[2],~2 copies of FlhB per 6 copies of FliP
